We go through nine proteins from patent publication US20250051821.

Sequences and labels used below:
T1: IFF05588
T1 chain: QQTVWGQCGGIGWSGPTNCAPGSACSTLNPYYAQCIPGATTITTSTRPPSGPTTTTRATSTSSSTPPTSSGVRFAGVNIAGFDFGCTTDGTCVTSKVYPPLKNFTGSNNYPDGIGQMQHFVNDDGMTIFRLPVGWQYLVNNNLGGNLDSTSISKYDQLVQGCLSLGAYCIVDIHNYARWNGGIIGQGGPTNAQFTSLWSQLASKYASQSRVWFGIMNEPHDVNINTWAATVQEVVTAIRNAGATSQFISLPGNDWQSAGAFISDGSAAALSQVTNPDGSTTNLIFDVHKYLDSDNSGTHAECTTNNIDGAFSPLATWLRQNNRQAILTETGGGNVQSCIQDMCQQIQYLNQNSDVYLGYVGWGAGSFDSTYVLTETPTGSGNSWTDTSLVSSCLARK

B1: IFF21357 (protein)
chain: GNPDKPEVNPHIPYDRLESDLRNNLHPTQSTWDYWGAGWIPQGCKDLANTYHLNPADFTVFNVHYTDCSASWTFCRHKDAGASEIDMIDMLGRLPVRMRSYTRHLMATPGLNDGAAAWTWSTGDTVVESAPNLATLVHEVSHSLDWHALPQYQQPFSSSSIWQDNYNQDSATPTGYGRTNWMENFAETGMVGVYDKVVPGGIGNIESNWNSIFHQYATYQGYLGDKIIPGGSCANRFDDTAPVTMSNSAKFRVTSPKPETGIDFAGKNITQIIPSKEVEGLFIKG
B2: IFF21377 (protein)
chain: KRLDKPALTPDLGYLLQGSVDNLHPTHSTWDKWGDGWIPEDCKSMAQNPNLNLNLNPSDFEVYNVHYDDCGDAWVLCRHKDSPVDLVTTVDIFGRLPVRMRDWVRHVMTVPGNDYAFNLNGNIVFSGRTSTNMDVAIHETGHSLDLLKAYGEVLSSSQTWIDNYNQDSNVPDNYAQSSQIENVAQNTVVSVFDKIVPGGFGSVQPNWHNIFHQYATLKSKAGDLILPGGQCDRRLKDSSPIPMDSNANEQGLLSWKPRTSFVNTYNNIVTNFEPFNTAEHCKESFS
B3: IFF21362 (protein)
chain: GSPDKPEMNPAFDYGRFEAGLRDNLHPTHSTWDYWGPGWIPQSCKDIATSHGLSPNDFTIFNVHYDDCQEGWTFCRHKDAGASEIDMIDIFGRAPVHMRSFIRHLVATPGLHDGAAAFTFSNGDCVVESAPDLSVMLHEMSHSLDWHALPQYPSPFSSSNEWQSNYAQDSNTPTAYGRTNWLEDFAEAGKVGVFDKVVPGGFGSVAGNWGQVFHQYATYQGYLGDTILPGGTCDKRFPNSETVPMAGNSKRMAADLGEKPDNTIKADNMTLIQMRPEIEGQVSICEHQH
B4: IFF21371 (protein)
chain: QLDKPLVVPAMPALDAGLLKHLAAPAYTTSQWEWGWIPQWCKDEAVSEKLSPYDIEVFNIHYNDCKDVWIFCRHNAAQASQKDMIDIFGRMPVRTRQFVRHILAVPGTISAGSSGDNIALRGTGPNLISVLIHEAAHSMDSHAVDSLSKPFHNTAEWLAAYKADSAISDDYAQTSQSENFAQTVVIAVFDKVVPGGIGSVQPSWAAIKNQYTTAQKWLGDLIIPGGTCTARLENSPVASMGRASGNGARMRRRARGGKPDVSLSKDTKVIPAIAGKKIHITSFAQ
B5: IFF21353 (protein)
chain: NLDKPVIQPNFPSLAPGLMSHLAPTHSTWDDWGAGWIPQDCKSMVQGAGFSPNDIIPFNIHYDDCGQTWTFCRHKNSPLSELQILDMFGRLPVRMRSFVRHLVFVPGNRSAGSNGDNILVVGDGDITLFAHEIGHSLDSHAFDPSYGVPFSTGNVWVSNYNLDSAVSDSYAQTSQQENFAQETVISLFDKVVPGGIGTIQPNWQAIFHQYATLQGYIGNVIIPGGTCTHRLTDSPPVPMSGSAKSRRGLGPKPEVSLSPEVKEIEAIPMESSITMTSFDEHGKPNGTYVIHLK
B6: IFF21368 (protein)
chain: QLSKPVMNPPVPFSDLDPTLFKYLKSTPHNRDQWGWGWLPARCKAIADQQGLNAYDIDVYNVHYSDCNQAWVMCRHHLSPLSIDTMAENFGRIPVRMRNFVRVQFALPQKDSSFGGATFSDLGDILWYGDVSKTLRFWIHEAGHTIDRNINPGSNDDYSKSSAWLNEYNKDGFICDDYAKNNAAENFAQEVIVALFDKVVPGGLGSVSPNWNSIFHQYATVQSKLGDILIPGGTCNRKFADDTIVCMGPAANCNSKANAKFRLKADKTQDAAIVAASDNPPIEDLFEVEE
B7: IFF21369 (protein)
chain: QLPKPIMSPAVPFDHTDPILYQHLGSTPSTYDQWGWGWLPLRCKAVAEARGLNPYDVNVYNVHYEDCDQAWVMCRHHGAQVSLDQMIDNFGRLPVRLRNIVRHQFAVPGEGLGAYTYSDLGDIVFTGDIGHLLRFWVHEAGHAVDRNINPSQGDYSSSQAWINEYNKDGYICDEYAKNNMAENFAQEVIVALFDKVVPGGIGTIVPNWNDIFHQYATVQAVMGDMLIPGGFCNRHFADDTIVCMGPAAGCENSKRDYEGLNSTETYTAEAEEPTVCTLA
B8: IFF21356 (protein)
chain: GNPDKPEVNPHIPYDRLESDLRNNLHPTQSTWDYWGAGWIPQGCKDLANTYHLNPADFTIFNVHYTDCSASWTFCRHKNAGASEIDMIDIFGRLPVHMRSYIRHLVATPGLNDGAAAWTWSSGDCVVESAPNLATLVHEVSHSLDWHALPQYQQPFSSSSIWQDNYNQDSATPTGYGRTNWMENFAETGMVGVYDKVVPGGIGNIEPNWNAIFHQYATYQGYLGDKIIPGGSCANRFDDTPPVAMSNSAKVKVNSPKPGTRIDFAGTNITQIIPSKEVEGLYIKG
B9: IFF21355 (protein)
chain: GNPDKPEVSPRIPYDRLESGLRNNLHPTQSTWDYWGAGWIPQGCKDLAKTYHLNPADFTIFNVHYTDCSASWTFCRHKDAGASEIDMIDIFGRLPVRMRSYIRHLMATPGLNDGAAAWTWSSGDCVVESAPNLATLVHEVSHSLDWHALPQYQQPFSSSSIWQDNYNQDSATPTGYGRTNWMENFAETGTVGVYDKVVPGGIGNIEPNWNAIFHQYATYQGYLGDKIIPGGSCANRFEDTPPVAMSNSVKFKITSPKPEIGIDFVGKNITQIIPSKEVEGLYIKG

In this series the target is T1, IFF05588.
Consider B1, for which the Relative late peak area (centered, scaled, averaged over 5, 10 and 15 min) was -1.05; the Relative late peak area (centered, scaled, averaged over doses, 24 h; sample diluted 1-fold) is -1.49; the “modification of IFF05588 (reverse phase chromatography, 5 to 15 min)” value was “All samples containing proteins related to IFF05497 except seven (IFF21355, IFF21358, IFF21356, IFF21361, IFF21370, IFF21357 and IFF21353) are able to modify IFF05588 under these reaction conditions”.
Consider B2, for which the Relative late peak area (centered, scaled, averaged over 5, 10 and 15 min) is -0.99; the Relative late peak area (centered, scaled, averaged over doses, 24 h; sample diluted 1-fold) is -1.45.
Turning to B3, the Relative late peak area (centered, scaled, averaged over 5, 10 and 15 min) is -0.99; the Relative late peak area (centered, scaled, averaged over doses, 24 h; sample diluted 1-fold) was -1.52; the Relative late peak area (reverse phase chromatography, 24 h) was found to be 0.23; the “modification of IFF05588 (reverse phase chromatography, 24 h)” value is recorded as “All samples containing proteins related to IFF05497 except one (IFF21362) are able to modify IFF05588 under these reaction conditions”.
Consider B4, for which the Relative late peak area (centered, scaled, averaged over 5, 10 and 15 min) was -0.95; the Relative late peak area (centered, scaled, averaged over doses, 24 h; sample diluted 1-fold) is -1.12.
As for B5, the Relative late peak area (centered, scaled, averaged over 5, 10 and 15 min) was -1.06; the Relative late peak area (centered, scaled, averaged over doses, 24 h; sample diluted 1-fold) was -1.31; the Relative late peak area (reverse phase chromatography, 24 h) was 0.25; the “modification of IFF05588 (reverse phase chromatography, 5 to 15 min)” value is “All samples containing proteins related to IFF05497 except seven (IFF21355, IFF21358, IFF21356, IFF21361, IFF21370, IFF21357 and IFF21353) are able to modify IFF05588 under these reaction conditions”.
Regarding B6, the Relative late peak area (centered, scaled, averaged over 5, 10 and 15 min) is -1; the Relative late peak area (centered, scaled, averaged over doses, 24 h; sample diluted 1-fold) is -1.44.
Regarding B7, the Relative late peak area (centered, scaled, averaged over 5, 10 and 15 min) was -1; the Relative late peak area (centered, scaled, averaged over doses, 24 h; sample diluted 1-fold) was -1.42.
Consider B8, for which the Relative late peak area (centered, scaled, averaged over 5, 10 and 15 min) was -1.04; the Relative late peak area (centered, scaled, averaged over doses, 24 h; sample diluted 1-fold) is -1.52; the “modification of IFF05588 (reverse phase chromatography, 5 to 15 min)” value was “All samples containing proteins related to IFF05497 except seven (IFF21355, IFF21358, IFF21356, IFF21361, IFF21370, IFF21357 and IFF21353) are able to modify IFF05588 under these reaction conditions”.
For the protein B9, the Relative late peak area (centered, scaled, averaged over 5, 10 and 15 min) was -1.02; the Relative late peak area (centered, scaled, averaged over doses, 24 h; sample diluted 1-fold) is -1.52; the “modification of IFF05588 (reverse phase chromatography, 5 to 15 min)” value was “All samples containing proteins related to IFF05497 except seven (IFF21355, IFF21358, IFF21356, IFF21361, IFF21370, IFF21357 and IFF21353) are able to modify IFF05588 under these reaction conditions”.
